Measurements: patent US20250298041A1

Assays:
[1] = molecular target: Recombinant LBD of GPIbα (residues 1-290), WT (human) (UniProt P07359); test: VWF:NCo ELISA, immobilised GPIbα-LBD, 250 nM 6D12; activity/antigen ratio
[2] = molecular target: Recombinant LBD of GPIbα (residues 1-290), WT (human) (UniProt P07359); test: activity/antigen ratio; VWF:GPIbNab ELISA on LBD-WT with nanobody 6C11, pdVWF as reference
[3] = molecular target: Recombinant LBD of GPIbα (residues 1-290), WT (human) (UniProt P07359); test: activity/antigen ratio; VWF:GPIbNab ELISA on LBD-WT with nanobody 6D12, pdVWF as reference
[4] = molecular target: Recombinant LBD of GPIbα (residues 1-290), WT (human) (UniProt P07359); test: activity/antigen ratio; VWF:GPIbNab ELISA on LBD-WT with nanobody 6C4, pdVWF as reference
[5] = molecular target: Recombinant LBD of GPIbα (residues 1-290), WT (human) (UniProt P07359); test: VWF:GPIbNab ELISA on LBD-WT with activating nanobodies; pdVWF as the reference
[6] = molecular target: Recombinant LBD of GPIbα (residues 1-290), WT (human) (UniProt P07359); test: activity/antigen ratio; VWF:GPIbR ELISA on LBD-WT with 1.0 mg/mL ristocetin
[7] = molecular target: Recombinant LBD of GPIbα (residues 1-290), WT (human) (UniProt P07359); test: VWF:GPIbNab ELISA on LBD-WT with 6C4 or 6D12 (not said which gives which end); pdVWF as the reference
[8] = molecular target: Recombinant LBD of GPIbα (residues 1-290), WT (human) (UniProt P07359); test: VWF:GPIbNab ELISA on LBD-WT with 6C11; pdVWF as the reference
[9] = molecular target: Recombinant LBD of GPIbα (residues 1-290), D235Y/M239V (human) (UniProt P07359); test: activity/antigen ratio; VWF:GPIbM ELISA on LBD-D235Y/M239V without activator
Recombinant LBD of GPIbα (residues 1-290), D235Y/M239V (human), sequence (P07359 17-306 D251Y/M255V limits assumed, form in doubt): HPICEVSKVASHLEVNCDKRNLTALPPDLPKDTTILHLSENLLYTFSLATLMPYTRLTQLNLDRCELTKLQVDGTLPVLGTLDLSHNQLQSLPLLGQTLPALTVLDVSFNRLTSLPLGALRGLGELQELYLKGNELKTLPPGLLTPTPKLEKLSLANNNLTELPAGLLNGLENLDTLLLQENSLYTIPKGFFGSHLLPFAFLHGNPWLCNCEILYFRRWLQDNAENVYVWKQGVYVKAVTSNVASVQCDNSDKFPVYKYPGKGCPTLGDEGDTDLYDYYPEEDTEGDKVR

Recombinant LBD of GPIbα (residues 1-290), WT (human), sequence (P07359 17-306 limits assumed, form in doubt): as the sequence (P07359 17-306 D251Y/M255V limits assumed, form in doubt) above, with Y235D, V239M counted along it

Substance	VWF:NCo/VWF:Ag ratio [1]	VWF:GPIbNab6C11/VWF:Ag [2]	VWF:GPIbNab6D12/VWF:Ag [3]	VWF:GPIbNab6C4/VWF:Ag [4]	VWF:GPIbNab/VWF:Ag ratio [5]	VWF:GPIbR/VWF:Ag [6]	VWF:GPIbNab/VWF:Ag ratio [7]	VWF:GPIbNab/VWF:Ag ratio [8]	VWF:GPIbM/VWF:Ag [9]
Humate P (from UniProt P04275 764-2813) (ligand)	1.2	–	–	–	–	–	–	–	–
Plasma-derived VWF (pdVWF, Alphanate) (from UniProt P04275 764-2813) (ligand)	1	1.01	0.93	1.05	1	0.84	–	–	–
recombinant VWF (rVWF, Vonvendi) (from UniProt P04275 764-2813) (ligand)	1.9	–	1.26	1.31	–	1.25	1.2 to 1.4	2.26	2.1
